According to patent CN111978395A (UNIV SICHUAN, dated 2020):

B1: DK5 (antibody, V domains shown)
VH: QVQLQQPGAELVKPGASVKMSCKASGYTFTSYSMHWVKQTPGQGLEWIGAIYPGNGDTSYNQKFKGKATLTADKSSSTAYMQLSSLTSEDSAVYYCARDYHYDGYYVTLDYWGQGTTLTVSS
VL: DIQMTQSPSSLSASLGERVSLTCRASQEISGYLSWLQQKPDGTIKRLIYAASTLDSGVPKRFSGSRSGSDYSLTISSLESEDFADYYCLQYASYPWTFGGGTKLEIK
B2: DK7 (antibody, V domains shown)
VH: QVQLQQPGAELVKPGASVKMSCKASGYTFTSYSMHWVKQTPGQGLEWIGAIYPGNGDTSYNQKFKGKATLTADKSSSTAYMQLSSLTSEDSAVYYCARDYHYDGYYVTLDYWGQGTTLTVSS
VL: DIQMTQSPSSLSASLGERVSLTCRASQEISGYLSWLQQKPDGTIKRLIYAASTLDSGVPKRFSGSRSGSDYSLTISSLESEDFADYYCLQYASYPWTFGGGTKLEIK
B3: DK10 (antibody, V domains shown)
VH: QVQLQQPGAELVKPGASVKMSCKASGYTFTSYSMHWVKQTPGQGLEWIGAIYPGNGDTSYTQKFKGKATLTADKSSSTAYMQLNSLTSEDSAVYYCARDYHYDGYYVTLDYWGQGTTLTVSS
VL: DIQMTQSPSSLSASLGERVSLTCRASQEISGYLSWLQQKPDGTIKRLIYAASTLDSGVPKRFSGSRSGSDYSLTISSLESEDFADYYCLQYASYPWTFGGGTKLEIK
B4: DK6 (antibody, V domains shown)
VH: QVQLQQPGTELVKPGASVKMSCKASGYTFTSYSIHWVKQTPGQGLEWIGAIYPGNGDTSYNQKFKGKATLTADKSSSTAYMQLSSLTSEDSAVYYCARDYHYDGYYVTLDYWGQGTTLTVSS
VL: DIQMTQSPSSLSASLGERVSLTCRASQEISGYLSWLQQKPDGTIKRLIYAASTLDSGVPKRFSGSRSGSDYSLTISSLESEDFADYYCLQYASYPWTFGGGTKLEIK
B5: DK14 (antibody, V domains shown)
VH: QVQLQQPGAELVKPGASVKLSCKASGYTFISYWMHWVKQRPGQGLEWIGEIDPSDSYTNSNQKFKGKATLTVDKSSSTAYMQLSSLTSEDSAVYYCARSELWAMDYWGQGTSVTVSS
VL: DIVMTQAAFSNPVTLGTSASISCRSSKSLLHSHGITYLYWYLQKPGQSPQLLIYQMSNLASGVPDRFSSSGSGTDFTLRISRVEAEDVGVYYCAQNLELPWTFGGGTKLEIR
B6: DK2 (antibody, V domains shown)
VH: QVQLQQPGAELVKPGASVKMSCKASGYTFISYSMHWVKQTPGQGLEWIGAIYPGNGDTSYTQKFKGKATLTADKSSTTAYMQLSSLTSEDSAVYYCARDHGNYVLDYWGQGTTLTVSS
VL: DIVMTQSHKFMSTSVGDRVSITCKASQDVGTAVAWYQQKPGQSPKLLIYWASTRHTGVPDRFTGSGSGTDFTLTISNVQSEDLADYFCQQYSSYPWTFGGGTKLEIK
B7: DK15 (antibody, V domains shown)
VH: QVQLQQPGAEFVMPGASVKMSCKASGYTFTDYWMHWVKQRPGQGLEWIGAIDTSDTYTRYNQKFKDKATLTVDESSSTAYMQLSSLTSEDSAVYYCARFLYYYGNPTFDYWGQGTTLTVSS
VL: DVQITQSPSYLAASPGETITINCRASKSISKYLAWYQEKPGKTNKLLIYSGSTLQSGIPSRFSGSGSGTDFTLTISSLEPEDFAMYYCQQHNEYPLTFGAGTKLELK
B8: DK11 (antibody, V domains shown)
VH: EVQLQQSGPELVKPGASVKISCKASGYSFTGYFMNWVKQSHGKSLEWIGRINPYNGDTFYNQKFKGKATLTVDKSSSTAHMELLSLTSEDSAVYYCGRGYLDYWGQGTTLTVSS
VL: DIVMTQSHKFMSTSVGDRVSITCKASQDVSTAVAWYQQKPGQSPKLLIFSASYRYTGVPDRFTGSGSGTDFTFTISSVQAEDLAVYYCQEHYSNPYTFGGGTKLEIK

Assays:
[1] = molecular target: T1, SARS-CoV2病毒表面SPIKE蛋白的RBD结构域 (SARS-CoV2, UniProt P0DTC2 319-541); assay: Biacore (SPR), recombinant antibody against RBD
SARS-CoV2病毒的囊膜蛋白SPIKE = SARS-CoV2病毒的囊膜蛋白SPIKE (SARS-CoV2, UniProt P0DTC2 14-1273); assay: cell-based or functional assay
[2] = molecular target: T1, SARS-CoV2病毒表面SPIKE蛋白的RBD结构域; assay: Biacore blocking experiment, antibody of the hybridoma clone

| Binder | Kd [1] [nM] | EC50(nM), 阻断假病毒感染 (GFP阳性细胞) (SARS-CoV2病毒的囊膜蛋白SPIKE) [nM] | EC50(μg/mL), 阻断假病毒感染 (GFP阳性细胞) (SARS-CoV2病毒的囊膜蛋白SPIKE) [µg/mL] | 阻断率 [2] [%] |
| --- | --- | --- | --- | --- |
| B1 | < 1 | 0.1 | 0.015 | ≥ 60 |
| B2 |  | 0.47 | 0.071 |  |
| B3 |  | 1.63 | 0.245 |  |
| B4 | < 1 | 0.47 | 0.071 | ≥ 60 |
| B5 |  | 0.41 | 0.062 |  |
| B6 | < 1 | 0.083 | 0.012 | ≥ 60 |
| B7 |  | 1.27 | 0.191 |  |
| B8 |  | 0.34 | 0.051 |  |
